We go through 2 molecules from US20230416364A1.

The assay deals with human IL-2 (Miltenyi) (human) (UniProt P60568). The experiment in a line: SPR. (In general: Surface plasmon resonance follows binding to a sensor surface in real time, without labels.)
human IL-2 (Miltenyi) (human), sequence (P60568 21-153 limits assumed): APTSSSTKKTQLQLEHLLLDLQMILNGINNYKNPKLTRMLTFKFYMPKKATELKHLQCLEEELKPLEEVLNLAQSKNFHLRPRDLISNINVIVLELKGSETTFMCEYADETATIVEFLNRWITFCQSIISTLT

B1: GS_hCD25.b (protein, part only; not given: Fusion partner and linker, part only)
chain, part: ELCDDDPPEIPHATFKAMAYKEGTMLNCECKRGFRRIKSGSLYMLCTGNSSHSSWDNQCQCTSSATRNTTKQVTPQPEEQKERKTTEMQSPMQPVDQASLPGHCREPPPWENEATERIYHFVVGQMVYYQCVQGYRALHRGPAESVCKMTHGKTRWTQPQLICTGEMETSQFPGEEKPQASPEGRPESETSCLVTTTDFQIQ
In general, Kd refers to the constant that tells how readily two partners part at equilibrium. The low end stands for tighter binding, the high end for weaker binding. As usually defined, the kon is a measure of how fast the partners come together. A high value points to fast association. The molecule B1 came in with a Kd of 12 nM and a kon of 1.1e+07 M⁻¹ s⁻¹.

B2: GS_hCD25.d (protein, part only; not given: Fusion partner and linker, part only)
chain, part: ELCDDDPPEIPHATFKAMAYKEGTMLNCECKRGFRRIKSGSLYMLCTGNSSHSSWDNQCQCTSSATRNTTKQVTPQPEEQKERKTTEMQSPMQPVDQASLPGHCREPPPWENEATERIYHFVVGQMVYYQCVQGYRALHRGPAESVCKMTHGKTRWTQPQLICTG
As a reminder, the koff is the first-order rate constant of dissociation. Low values mean slow dissociation, high ones fast dissociation. For the molecule B2, the Kd was 12 nM, the koff was 0.063 s⁻¹ and the kon was determined as 5.4e+06 M⁻¹ s⁻¹.
